Measured values: PMC9334453, “A native IgE in complex with profilin provides insights into allergen recognition and cross-reactivity” (Communications Biology, 2022)

Assays:
Details in all cases: both partners purified
biotinylated rHev b 8 [1] = biological target: T1, biotinylated rHev b 8 (Hevea brasiliensis, biotin (1:5 profilin:biotin ratio; sites not stated)); test: BLI; biotinylated rHev b 8 (125 nM) on streptavidin biosensors; Fab/IgE 2F5 at 62.5-2000 nM; 25 °C; PBS pH 7.4, 0.05% Tween 20, 1 M NaCl; 1:1 global fit considering nonspecific binding (Association-Dissociation model, GraphPad Prism 8)
T1 construct: profilin Hev b 8, Hevea brasiliensis, named 'rHev b 8' in the BLI methods; The BLI methods say only 'Profilin rHev b 8'; also called biotinylated profilin; biotinylated allergen; source: E. coli Rosetta (DE3), purified (HisTrap), then biotinylated at a 1:5 profilin:biotin ratio and dialyzed
T1 chain: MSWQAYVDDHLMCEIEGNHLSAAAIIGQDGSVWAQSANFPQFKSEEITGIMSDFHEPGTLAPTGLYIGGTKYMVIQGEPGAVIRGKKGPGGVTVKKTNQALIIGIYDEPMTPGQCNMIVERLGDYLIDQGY

[2] = biological target: T2, DDDK-rHev b 8 (rHev b 8 with the last four residues of the enterokinase cleavage site at the N-terminus) (Hevea brasiliensis); test: MALDI-TOF mass spectrometry; sinapinic acid matrix; samples of Fab/IgE 2F5 and of its complex with rHev b 8 (whole construct); the peaks of the complex and of the dimeric Fab were not calibrated
T2 construct: last four residues of the enterokinase cleavage site left at the N-terminus (D-3, D-2, D-1, K-0); D-2 makes a hydrogen bond with Y49 of the Fab light chain; profilin Hev b 8, Hevea brasiliensis, from M1; The whole construct was expected at 18,283 Da but measured 14,625 Da (14,629 Da in another paragraph): only DDDK is left of the N-terminal extension; also called DDDK-Hev b 8; rHev b 8 whole …
T2 chain: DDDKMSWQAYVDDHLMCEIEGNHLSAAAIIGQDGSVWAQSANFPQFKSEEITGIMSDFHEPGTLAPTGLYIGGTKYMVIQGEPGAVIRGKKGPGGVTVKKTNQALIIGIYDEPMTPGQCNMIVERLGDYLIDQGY

biotinylated rHev b 8 [3] = biological target: T1, biotinylated rHev b 8; test: BLI; same BLI data (biotinylated rHev b 8 on streptavidin, 25 °C, PBS pH 7.4, 0.05% Tween 20, 1 M NaCl); kon from the association step and koff from the dissociation step fitted separately in Prism 8, KD = koff/kon
[4] = biological target: T3, recombinant maize profilin (rZea m 12) (Zea mays); test: ELISA; plates coated with 100 μL of 0.7 μM profilin in PBS pH 7.4, blocked with 1% BSA; IgE 2F5 in PBS, 1 h 37 °C; detected with HRP anti-mouse IgE Fcε, ABTS, 405 nm; n = 4
T3 construct: profilin Zea m 12, maize; has D14, G98, V118, E128; The mutagenesis primers encode KKT(N)MSL and YLI(D)QGF around positions 98 and 128
T3 chain: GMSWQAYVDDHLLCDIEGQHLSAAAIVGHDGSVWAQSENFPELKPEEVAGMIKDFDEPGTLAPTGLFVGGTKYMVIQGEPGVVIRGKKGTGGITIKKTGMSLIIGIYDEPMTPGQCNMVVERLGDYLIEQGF

[5] = biological target: T2, DDDK-rHev b 8 (rHev b 8 with the last …); test: as above

B1: Fab/IgE 2F5 (papain Fab fragment of the murine IgE 2F5) (Fab, V domains shown)
VH: EVQLVESGGGLVQPKGSLKLSCAASGFTFNTYAMNWVRQAPGKGLEWVARIRTKTNNYVTYYADSVKDRFTISRDDSQSMLYLQMNNLKTEDTAMYYCVRHVGDYWGQGTSVTVSS
VL: DIQMTQSPASLSASVGETVTITCRASGNIHNYLAWFQQKQGKSPQLLVYNAKTLADGVPSRFSGSGSGTQYSLKINSLQPEDFGSYYCQHFWSTPYTFGGGTKLEIK
notes: VH and Cε1; papain cleavage site said to be R209/P210 between Cε1 and Cε2; light chain of IgE 2F5; also called the Fab; source: papain digest of IgE 2F5 (36 h, 37 °C), purified (Superdex 75 SEC, Mono Q)
Question: Which Kd (biotinylated rHev b 8 [1]) does the source give for B1 here?
Answer: The Kd was 370 ± 6.8 nM.

Question: Does B1 bind [2]?
Answer: Result: binds

Question: What about the Kd (biotinylated rHev b 8 [3]) of the same binder?
Answer: Its Kd is 369 ± 3.8 nM.

B2: murine monoclonal IgE antibody 2F5 (anti-profilin Hev b 8) (antibody, V domains shown)
VH: EVQLVESGGGLVQPKGSLKLSCAASGFTFNTYAMNWVRQAPGKGLEWVARIRTKTNNYVTYYADSVKDRFTISRDDSQSMLYLQMNNLKTEDTAMYYCVRHVGDYWGQGTSVTVSS
VL: DIQMTQSPASLSASVGETVTITCRASGNIHNYLAWFQQKQGKSPQLLVYNAKTLADGVPSRFSGSGSGTQYSLKINSLQPEDFGSYYCQHFWSTPYTFGGGTKLEIK
notes: rest of the murine IgE (epsilon) heavy chain constant region after the papain site R209/P210 (Cε2 onward); as the light chain of m2; Native, non-recombinant IgE with naturally paired chains; also called IgE 2F5; mAb 2F5; copies: 2 + 2
Question: What does the source list for B2?
Answer: binding result [4]: no binding; binding result [5]: binds
